Results: the supplement of paper PMC10567573

B1: EHMT1 (parent)
chain: FHKDCASRVNNASYCPHCGEESSK
B2: ZBED2 (parent)
chain: FHLAPARAGHHPNQYATCRLCGRQ

Variants of: B1
Assay: protein stability index of a GFP-peptide fusion (GPS, HEK-293T) (PSI 1-6); higher = more stable
Settings: c terminus: a fixed tail appended
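Further: lentivirally expressed fusions sorted by FACS into six bins by GFP to DsRed ratio, PSI derived from sequencing read proportions per bin multiplied by bin number.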

Protein stability index of substitutions, site by site:
K24: W 3.05; Y 2.9

Variants of: B2
Assay: as above
Settings: c terminus: a fixed tail appended

Protein stability index: each site, then its substitutions
H10: F 1.9; E 2.32; C 2.01; A 1.22; G 1.34; D 1.27
A8: S 1.76; N 2.31; I 2.73; W 3.08; R 1.3; D 1.36; Y 3.15; F 2.6; V 1.65; P 2.56; K 1.69; H 1.75; M 2.75; Q 2.02; T 1.83; E 2.34; L 2.47; G 2.87; C 3.28
G9: W 2.05; Y 1.99; K 1.08; Q 2.11; N 2.11; L 2.55; I 1.84; C 3.72; S 2.51; A 1.86; M 2.27; E 1.97; F 1.77; H 2.22; V 1.37; D 1.83; P 1.69; T 2.44
L3: K 2.09; M 1.84; F 1.93; T 2.25; A 1.61; P 3.45; C 1.71; Q 1.13; S 1.45; Y 1.95; I 1.38; H 1.71; D 2.5; E 2.75; G 1.53; N 2.23; V 1.84
H2: T 2.76; A 1.46; K 1.95; W 1.26; E 2.6; I 2.37; F 1.42; S 1.59; P 2.78; G 1.88; L 1.86; M 2.43; D 2.41; C 1.66; Q 2.51; N 2.65
A6: E 2.36; H 1.92; I 1.71; Y 2.19; M 1.67; C 3; G 2.54; T 1.51; R 1.77; Q 1.8; N 1.65; W 1.36; L 1.67; F 1.68; V 2.15; S 1.61; K 1.4; P 1.93; D 1.89
F1: D 3.36; N 2.73; H 2.46; E 3.31; G 1.71; R 2.77; K 2.53; Y 1.43; V 2.74; P 3.07; L 2.13; W 1.59; S 3.33; C 2.58; A 2.9; M 2.1; Q 2.78; T 2.45; I 2.21
P5: V 1.96; R 1.64; E 2.36; K 1.83; N 1.84; L 2; D 2.83; F 2.03; I 2.13; S 1.24; M 1.05; C 2.04; G 1.77; Q 2.02; A 2.78; T 2.32; H 1.99; Y 1.52
A4: H 1.95; N 1.48; D 1.59; F 2.14; E 2.05; W 2.73; M 1.39; G 2.19; S 2.74; K 2.32; C 2.48; L 1.17; T 1.84; Q 1.91; I 2.53
R7: E 2.04; P 1.92; G 2.22; Y 2.09; C 3.77; F 2.11; S 1.4; Q 1.93; D 2.34; V 1.73; A 1.74; L 1.92; T 2.1; N 2.15; I 1.55; M 2.13; H 2.61; K 2.59
